# Measured values published in paper doi:10.1101/607101 (bioRxiv, 2019).
# Target: the molecule itself
# Experiment: crystal structure
protein,measurement,value
"Kitasatospora setae enoyl-CoA carboxylase/reductase (ECR), wild type (enzyme) MQEILDAILSGDAASADYAALALPESYRAVTLHKGEERMFDGLASRDKDPRKSLHLDDVPLPELGPGEALVAVMASSVNYNTVWSSIFEPVSTFGFLERYGRLSPLTARHDLPYHVLGSDLAGVVLRTGAGVNAWKPGDEVVAHCLSVELESPDGHNDTMMDPEQRIWGFETNFGGLAQLALVKTNQLLPKPKHLTWEEAASPGLVNSTAYRQLVSRNGAGLKQGDNVLIWGASGGLGSYATQYALAGGATPICVVSSPRKADICRAMGAEAIIDRSAEGYRFWKDEHHQDPREWKRLGGKIREFTGGEDVDIVFEHPGRETFGASVYVTRKGGTIVTCASTSGYMHQYDNRYLWMSLKRIVGSHFANYREAFEANRLVAKGKIHPTLSKVYALEETGQAALDVHHNKHQGKVGVLCLAPREGLGVTDPELRSKHLTKINAFRNV",stoichiometry N,4
